Reference: patent publication US20160272683A1 (Novo Nordisk, published 2016)
Numbered stars: 1 amine (or outer) side, 2 acyl side, 3 side chain; on linkers, the order of the positions; unused ones are H or OH. * marks the point of attachment. C20 diacid = O=C(O)CCCCCCCCCCCCCCCCCCC(=O)*; C18 diacid = O=C(O)CCCCCCCCCCCCCCCCC(=O)*; γGlu = O=C(O)[C@H](CCC(=O)[*:2])N[*:1]; AEEA = NCCOCCOCC(=O)O

B1: [N-terminal(C20 diacid), 30S, 31G]mimylin (peptide)
peptide: {C20 diacid}-EASELSTAALGRLSAELHELATLPRTETGSGSP-NH2
B2: [N-terminal(C18 diacid-gGlu), des1, 30S]mimylin (peptide)
peptide: {C18 diacid-γGlu}-ASELSTAALGRLSAELHELATLPRTETGSESP-NH2
SMILES: CC(C)C[C@H](NC(=O)[C@H](C)NC(=O)[C@H](C)NC(=O)[C@@H](NC(=O)[C@H](CO)NC(=O)[C@H](CC(C)C)NC(=O)[C@H](CCC(=O)O)NC(=O)[C@H](CO)NC(=O)[C@H](C)NC(=O)CC[C@H](NC(=O)CCCCCCCCCCCCCCCCC(=O)O)C(=O)O)[C@@H](C)O)C(=O)NCC(=O)N[C@@H](CCCNC(=N)N)C(=O)N[C@@H](CC(C)C)C(=O)N[C@@H](CO)C(=O)N[C@@H](C)C(=O)N[C@@H](CCC(=O)O)C(=O)N[C@@H](CC(C)C)C(=O)N[C@@H](Cc1c[nH]cn1)C(=O)N[C@@H](CCC(=O)O)C(=O)N[C@@H](CC(C)C)C(=O)N[C@@H](C)C(=O)N[C@H](C(=O)N[C@@H](CC(C)C)C(=O)N1CCC[C@H]1C(=O)N[C@@H](CCCNC(=N)N)C(=O)N[C@H](C(=O)N[C@@H](CCC(=O)O)C(=O)N[C@H](C(=O)NCC(=O)N[C@@H](CO)C(=O)N[C@@H](CCC(=O)O)C(=O)N[C@@H](CO)C(=O)N1CCC[C@H]1C(N)=O)[C@@H](C)O)[C@@H](C)O)[C@@H](C)O
B3: [N-terminal(C20 diacid-gGlu), des1, 30S, 31G]mimylin (peptide)
peptide: {C20 diacid-γGlu}-ASELSTAALGRLSAELHELATLPRTETGSGSP-NH2
B4: [N-terminal(C20 diacid-gGlu-OEG), des1, 30S, 31G]mimylin (peptide)
peptide: {C20 diacid-γGlu-AEEA}-ASELSTAALGRLSAELHELATLPRTETGSGSP-NH2
B5: [N-terminal(C18 diacid), 30S, 31G]mimylin (peptide)
peptide: {C18 diacid}-EASELSTAALGRLSAELHELATLPRTETGSGSP-NH2
B6: [N-terminal(C20 diacid-gGlu-3xOEG), des1, 30S, 31G]mimylin (peptide)
peptide: {C20 diacid-γGlu-AEEA-AEEA-AEEA}-ASELSTAALGRLSAELHELATLPRTETGSGSP-NH2
B7: [N-terminal(C20 diacid-gGlu-4xOEG), des1, 30S, 31G]mimylin (peptide)
peptide: {C20 diacid-γGlu-AEEA-AEEA-AEEA-AEEA}-ASELSTAALGRLSAELHELATLPRTETGSGSP-NH2
B8: [N-terminal(C20 diacid-gGlu-2xOEG), des1, 30S, 31G]mimylin (peptide)
peptide: {C20 diacid-γGlu-AEEA-AEEA}-ASELSTAALGRLSAELHELATLPRTETGSGSP-NH2
B9: [N-terminal(C18 diacid-gGlu), des1, 30S, 31P]mimylin (peptide)
peptide: {C18 diacid-γGlu}-ASELSTAALGRLSAELHELATLPRTETGSPSP-NH2
SMILES: CC(C)C[C@H](NC(=O)[C@H](C)NC(=O)[C@H](C)NC(=O)[C@@H](NC(=O)[C@H](CO)NC(=O)[C@H](CC(C)C)NC(=O)[C@H](CCC(=O)O)NC(=O)[C@H](CO)NC(=O)[C@H](C)NC(=O)CC[C@H](NC(=O)CCCCCCCCCCCCCCCCC(=O)O)C(=O)O)[C@@H](C)O)C(=O)NCC(=O)N[C@@H](CCCNC(=N)N)C(=O)N[C@@H](CC(C)C)C(=O)N[C@@H](CO)C(=O)N[C@@H](C)C(=O)N[C@@H](CCC(=O)O)C(=O)N[C@@H](CC(C)C)C(=O)N[C@@H](Cc1c[nH]cn1)C(=O)N[C@@H](CCC(=O)O)C(=O)N[C@@H](CC(C)C)C(=O)N[C@@H](C)C(=O)N[C@H](C(=O)N[C@@H](CC(C)C)C(=O)N1CCC[C@H]1C(=O)N[C@@H](CCCNC(=N)N)C(=O)N[C@H](C(=O)N[C@@H](CCC(=O)O)C(=O)N[C@H](C(=O)NCC(=O)N[C@@H](CO)C(=O)N1CCC[C@H]1C(=O)N[C@@H](CO)C(=O)N1CCC[C@H]1C(N)=O)[C@@H](C)O)[C@@H](C)O)[C@@H](C)O
B10: [N-terminal(C20 diacid-gGlu), 23Y, 30S, 31G]mimylin (peptide)
peptide: {C20 diacid-γGlu}-EASELSTAALGRLSAELHELATYPRTETGSGSP-NH2
SMILES: CC(C)C[C@H](NC(=O)[C@H](C)NC(=O)[C@H](C)NC(=O)[C@@H](NC(=O)[C@H](CO)NC(=O)[C@H](CC(C)C)NC(=O)[C@H](CCC(=O)O)NC(=O)[C@H](CO)NC(=O)[C@H](C)NC(=O)[C@H](CCC(=O)O)NC(=O)CC[C@H](NC(=O)CCCCCCCCCCCCCCCCCCC(=O)O)C(=O)O)[C@@H](C)O)C(=O)NCC(=O)N[C@@H](CCCNC(=N)N)C(=O)N[C@@H](CC(C)C)C(=O)N[C@@H](CO)C(=O)N[C@@H](C)C(=O)N[C@@H](CCC(=O)O)C(=O)N[C@@H](CC(C)C)C(=O)N[C@@H](Cc1c[nH]cn1)C(=O)N[C@@H](CCC(=O)O)C(=O)N[C@@H](CC(C)C)C(=O)N[C@@H](C)C(=O)N[C@H](C(=O)N[C@@H](Cc1ccc(O)cc1)C(=O)N1CCC[C@H]1C(=O)N[C@@H](CCCNC(=N)N)C(=O)N[C@H](C(=O)N[C@@H](CCC(=O)O)C(=O)N[C@H](C(=O)NCC(=O)N[C@@H](CO)C(=O)NCC(=O)N[C@@H](CO)C(=O)N1CCC[C@H]1C(N)=O)[C@@H](C)O)[C@@H](C)O)[C@@H](C)O

These binders were tested against T1, human amylin 3(a) receptor (human calcitonin receptor co-expressed with RAMP-3) on BHK570/CRE-luc cells (human, UniProt P30988 25-474; O60896 24-148) (assay: cell-based or functional assay).
T1 sequence (looked up) 1: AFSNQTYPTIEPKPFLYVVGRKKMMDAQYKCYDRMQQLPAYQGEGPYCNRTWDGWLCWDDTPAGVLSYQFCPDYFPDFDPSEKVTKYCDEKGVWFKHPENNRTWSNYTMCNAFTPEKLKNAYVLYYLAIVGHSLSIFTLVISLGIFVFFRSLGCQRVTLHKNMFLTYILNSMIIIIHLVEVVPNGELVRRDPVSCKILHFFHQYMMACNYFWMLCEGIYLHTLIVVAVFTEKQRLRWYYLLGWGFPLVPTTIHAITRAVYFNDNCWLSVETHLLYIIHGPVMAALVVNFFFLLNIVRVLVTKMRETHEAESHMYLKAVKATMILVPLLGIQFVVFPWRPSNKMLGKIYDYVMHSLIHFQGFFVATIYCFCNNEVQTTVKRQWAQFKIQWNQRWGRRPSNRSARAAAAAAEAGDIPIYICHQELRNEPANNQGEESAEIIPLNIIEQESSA
T1 sequence (looked up) 2: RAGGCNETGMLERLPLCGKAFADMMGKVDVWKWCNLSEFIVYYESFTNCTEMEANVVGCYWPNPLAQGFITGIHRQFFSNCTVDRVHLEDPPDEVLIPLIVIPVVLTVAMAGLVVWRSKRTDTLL

First: B1
Second: B2
The “hAmylin-R funct. EC50 (pM), tested with HSA” value (“hAmylin-R funct. EC50 (pM)” for short) of the first is higher: 61 pM for the first, 26 pM for the second.

Compared with B3, B4 is higher in “hAmylin-R funct. EC50 (pM)” value: 51 pM for the first, 73 pM for the second.

Compared with B5, B6 is higher in “hAmylin-R funct. EC50 (pM)” value: 39 pM for the first, 68 pM for the second.

Compared with B7, B8 is higher in “hAmylin-R funct. EC50 (pM)” value: 62 pM for the first, 67 pM for the second.

First: B9
Second: B10
The “hAmylin-R funct. EC50 (pM)” value of the first is lower: 39 pM for the first, 143 pM for the second.

These binders were tested against T2, human calcitonin receptor on BHK570/CRE-luc cells (human, UniProt P30988 25-474) (assay: cell-based or functional assay).
T2 sequence (looked up): T1 sequence (looked up) 1

Going from B1 to B2, the “hCTR funct. EC50 (pM), tested with HSA” value falls from 26 pM to 9 pM.

Going from B3 to B4, the “hCTR funct. EC50 (pM), tested with HSA” value rises from 29 pM to 30 pM.

Compared with B5, B6 is higher in “hCTR funct. EC50 (pM), tested with HSA” value: 19 pM for the first, 25 pM for the second.

First: B7
Second: B8
The “hCTR funct. EC50 (pM), tested with HSA” value of the first is lower: 25 pM for the first, 35 pM for the second.

First: B9
Second: B10
The “hCTR funct. EC50 (pM), tested with HSA” value of the first is lower: 19 pM for the first, 74 pM for the second.
